Data as given in PMC3543496 (FEBS letters, 2012).
Where a chain is given by its changes, count along the chain named. In names and notes the source's numbering stands. Read-outs that look alike come from different tables or passages of the source.

B1: WT clathrin hub (bovine clathrin heavy chain aa1074-1675) (domain or fragment, UniProt P49951 1074-1675, looked up)
chain: KFDVNTSAVQVLIEHIGNLDRAYEFAERCNEPAVWSQLAKAQLQKGMVKEAIDSYIKADDPSSYMEVVQAANTSGNWEELVKYLQMARKKARESYVETELIFALAKTNRLAELEEFINGPNNAHIQQVGDRCYDEKMYDAAKLLYNNVSNFGRLASTLVHLGEYQAAVDGARKANSTRTWKEVCFACVDGKEFRLAQMCGLHIVVHADELEELINYYQDRGYFEELITMLEAALGLERAHMGMFTELAILYSKFKPQKMREHLELFWSRVNIPKVLRAAEQAHLWAELVFLYDKYEEYDNAIITMMNHPTDAWKEGQFKDIITKVANVELYYRAIQFYLEFKPLLLNDLLMVLSPRLDHTRAVNYFSKVKQLPLVKPYLRSVQNHNNKSVNESLNNLFITEEDYQALRTSIDAYDNFDNISLAQRLEKHELIEFRRIAAYLFKGNNRWKQSVELCKKDSLYKDAMQYASESKDTELAEELLQWFLQEEKRECFGACLFTCYDLLRPDVVLETAWRHNIMDFAMPYFIQVMKEYLTKVDKLDASESLRKEEEQATETQPIVYGQPQLMLTAGPSVAVPPQAPFGYGYTAPAYGQPQPGFGYSM
B2: C1573A clathrin hub (bovine clathrin heavy chain aa1074-1675, C1573A) (domain or fragment, UniProt P49951 1074-1675, looked up)
chain: B1 chain with C500A

Key:
SEC-MALS [1] = target: the molecule itself; experiment: SEC-MALS
SEC-MALS [2] = target: the molecule itself; experiment: SEC-MALS; remark: listed apart in the source

Protein | stoichiometry N (SEC-MALS [1]) | stoichiometry N (SEC-MALS [2])
B1 | 3 | –
B2 | ~2 | ~3
